One block for each binder: values may come before it.
Legend:
[1] = target: T1, VEGFR3 IgD5 (individual recombinant immunoglobin-like domain 5 of VEGFR3) (UniProt P35916 422-552, limits assumed); assay: cell-based competitive ELISA: R2C7-1 absorbed with the soluble domain, then bound to 293T/VEGFR3 cells, OD405
T1 construct: domain: IgD5
T1 sequence (looked up): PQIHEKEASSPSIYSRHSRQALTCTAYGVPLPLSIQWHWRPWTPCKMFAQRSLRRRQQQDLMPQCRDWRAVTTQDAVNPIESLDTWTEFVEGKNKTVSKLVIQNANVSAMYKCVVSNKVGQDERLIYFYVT
Experimental: (§1) Panel A, Cell-based competitive. ELISA. HEK293T cells expressing VEGFR3 (293T/VEGFR3) were coated in 96-well plates. The optimal concentrations of R2C7-1 and R2C9-11 mAbs were determined as described previously (data now shown). The optimal concentrations of R2C7-1 and R2C9-11 mAbs were absorbed with the designed doses of the individual immunoglobin-like domains of VEGFR3 (R3-IgDs) antigens, as indicated. The bound antibodies were immune-probed with secondary antibody conjugated with HRP, visualized by addition of ABTS, and measured at OD₄₀₅ using a microplate reader (SpectraMax). Data are represented as means±S.D. of percentage of isotype control (CTL) in triplicate. The epitope locations of R2C7-1 and R2C9-11 on the VEGFR3 antigen are indicated by the black lines spanning IgD6 in the schematics. Panel B, Native gel electrophoresis. The whole extracellular domain (R3-IgD1-7), domain 3-4 (R3-IgD3-4) and domain 6-7 (R3-IgD6-7) were constructed, expressed in the E. coli, and purified using the anti-Myc affinity purification system. The purity and molecular weight of each recombinant protein were visualized with a standard Western blot using anti-Myc antibody as probe (left). The binding of R2C7-1 and R2C9-11 to the VEGFR3 truncated antigens was evaluated with native gel electrophoresis to confirm the epitopes of R2C7-1 and R2C9-11 mAbs (middle and right, respectively).
(§2) The same methodology was adopted to define the epitopes of the antibodies on VEGFR3. To determine the optimal concentrations of the antibodies for VEGFR3, HEK293T/VEGFR3 transfectants were used as targets (data not shown). Subsequently, the antibodies with optimal concentrations were absorbed with individual recombinant extracellular domains of VEGFR3 (R3-IgDs) for competing the binding epitopes. Similarly, their major epitopes were both located in IgD6, but not in IgD7, of VEGFR3. To conform this finding, Western blotting analysis of different recombinant IgD proteins was carried out using native gel electrophoresis.

R3-IgD4 [2] = target: T2, R3-IgD4 (human, UniProt P35916); assay: as above
T2 construct: recombinant fragment; also called immunoglobin-like domain 4 of VEGFR3
T2 sequence (receptor fragment, looked up): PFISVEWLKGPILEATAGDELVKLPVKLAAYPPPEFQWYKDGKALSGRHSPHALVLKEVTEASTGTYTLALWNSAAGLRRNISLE
Experimental: as §1, §2

R3-IgD7 [3] = target: T3, R3-IgD7 (human, UniProt P35916); assay: as above
T3 construct: recombinant fragment; also called immunoglobin-like domain 7 of VEGFR3
T3 sequence (receptor fragment, looked up): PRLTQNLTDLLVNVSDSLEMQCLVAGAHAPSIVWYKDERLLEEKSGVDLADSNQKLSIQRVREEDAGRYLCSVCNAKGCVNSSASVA
Experimental: as §1, §2

VEGFR3 (Flt-4)-IgD 4-7 = target: T4, VEGFR3 (Flt-4)-IgD 4-7 (UniProt P35916 331-764, limits assumed); assay: Biacore; antibody as flow analyte, Flt 4-IgD4-7 as ligand
T4 construct: domain: IgD4-7; The methods describe no D4-7 construct of VEGFR3; tag and expression host are unknown; also called recombinant IgD4-7 of VEGFR3
T4 sequence (looked up): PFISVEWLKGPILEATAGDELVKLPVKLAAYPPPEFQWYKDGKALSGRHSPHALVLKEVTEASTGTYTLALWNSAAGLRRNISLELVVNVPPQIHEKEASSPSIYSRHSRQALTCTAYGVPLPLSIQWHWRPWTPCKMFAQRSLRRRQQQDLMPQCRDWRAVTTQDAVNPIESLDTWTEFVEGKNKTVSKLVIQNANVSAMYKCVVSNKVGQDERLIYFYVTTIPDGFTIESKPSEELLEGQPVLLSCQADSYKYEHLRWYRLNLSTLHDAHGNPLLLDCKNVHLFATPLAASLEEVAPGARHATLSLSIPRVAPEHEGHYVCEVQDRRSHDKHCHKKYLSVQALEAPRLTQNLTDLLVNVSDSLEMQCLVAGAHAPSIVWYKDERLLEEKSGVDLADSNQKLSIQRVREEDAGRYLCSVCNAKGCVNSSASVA

VEGFR2 (KDR)-IgD 4-7 = target: T5, VEGFR2 (KDR)-IgD 4-7 (human, UniProt P35968 328-753); assay: Biacore; antibody as flow analyte, KDR-IgD4-7 as ligand
T5 construct: domain: IgD4-7; Expressed in E. coli; also called recombinant IgD4-7 of VEGFR2; VEGFR2-ED Ig D4-7

VEGFR2 (KDR)-IgD 6-7 = target: T6, VEGFR2 (KDR)-IgD 6-7 (UniProt P35968 551-753); assay: Biacore; antibody as flow analyte, KDR-IgD6-7 as ligand
T6 construct: domain: IgD6-7; GST-tagged recombinant protein from E. coli by the methods; also called recombinant IgD6-7 of VEGFR2; VEGFR2-ED Ig D6-7; not shown: GST tag from the pGEX-4T-1 vector

[4] = target: T1, VEGFR3 IgD5 (individual recombinant …); assay: cell-based competitive ELISA: R2C9-11 absorbed with the soluble domain, then bound to 293T/VEGFR3 cells, OD405
Experimental: as §1, §2

R3-IgD4 [5] = target: T2, R3-IgD4; assay: as above
Experimental: as §1, §2

R3-IgD7 [6] = target: T3, R3-IgD7; assay: as above
Experimental: as §1, §2

T5 sequence (P35968 328-753 limits assumed): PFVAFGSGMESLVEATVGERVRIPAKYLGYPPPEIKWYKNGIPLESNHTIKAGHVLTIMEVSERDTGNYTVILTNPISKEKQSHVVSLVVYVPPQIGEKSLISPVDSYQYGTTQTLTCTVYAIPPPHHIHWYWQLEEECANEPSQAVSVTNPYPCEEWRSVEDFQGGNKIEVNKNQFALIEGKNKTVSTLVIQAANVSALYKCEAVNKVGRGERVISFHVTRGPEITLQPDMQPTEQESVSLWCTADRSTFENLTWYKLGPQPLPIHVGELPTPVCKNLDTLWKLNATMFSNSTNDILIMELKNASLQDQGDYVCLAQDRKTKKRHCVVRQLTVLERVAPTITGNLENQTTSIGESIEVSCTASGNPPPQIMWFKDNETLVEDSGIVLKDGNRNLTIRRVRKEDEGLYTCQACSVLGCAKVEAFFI
T6 sequence (P35968 551-753): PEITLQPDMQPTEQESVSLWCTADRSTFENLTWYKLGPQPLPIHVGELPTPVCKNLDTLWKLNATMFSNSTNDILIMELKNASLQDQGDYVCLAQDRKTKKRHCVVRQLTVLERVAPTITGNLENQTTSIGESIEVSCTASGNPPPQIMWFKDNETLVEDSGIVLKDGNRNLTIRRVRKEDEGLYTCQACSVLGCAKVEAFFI

koff (VEGFR3 (Flt-4)-IgD 4-7): 0.0049 s⁻¹
kon (VEGFR3 (Flt-4)-IgD 4-7): 1.5e+06 M⁻¹ s⁻¹
koff (VEGFR2 (KDR)-IgD 4-7): 0.0024 s⁻¹
koff (VEGFR2 (KDR)-IgD 6-7): 1.1e-05 s⁻¹
B1: R2C7-1 monoclonal antibody (antibody, V domains shown)
VH: EVQLQQSGPELVKPGASVKISCKASGYSFTDYFINWVIQRHGKSLEWVGRINPYNGGSFYNQKFKDKATLTVDKSSNIAHMELRSLASEDSAIYYCARSGGNGYDYWGQGTTLTVSS
VL: DIVMTQAAPSVPVIPGESVSISCRSSKSLLHSNGNTYLYWFLQRPGQSPQLLIYRMSNLASGVPDRFSGSGSGTAFTLRISRVEAEDVGVYYCMQHLEYPYTFGGGTKVEIK
notes: Mouse monoclonal antibody purified from hybridoma supernatant; An IgG2a isotype antibody served as its control; also called R2C7-1 mAb
binding result [1]: no binding (tested: 10 (unit not printed on the sheet))
binding result (R3-IgD4 [2]): no binding (tested: 10 (unit not printed on the sheet))
binding result (R3-IgD7 [3]): no binding (tested: 10 (unit not printed on the sheet))

koff (VEGFR3 (Flt-4)-IgD 4-7): 0.0034 s⁻¹
kon (VEGFR3 (Flt-4)-IgD 4-7): 3.2e+06 M⁻¹ s⁻¹
koff (VEGFR2 (KDR)-IgD 4-7): 1.3e-05 s⁻¹
B2: R2C9-11 monoclonal antibody (antibody, V domains shown)
VH: QVQLQQPGAELVKPGASVKLSCKASGYTFTSYWMHWVKQRPGQGLEWIGEINPSNGRTNYNEKFKSKATLTVDKSSSTAYMQLSSLTSEDSAVYYCANLYFDVWGAGTTVTVSS
VL: DIVMTQSPSSLSVSAGEKVTMSCKSSQNLLNSGNQKYYLAWYQQKPGQPPKLLIYGASIRESGVPDRFIGSGSGTDFTLTISSVQAEDLAVYFCQSDHSYPYTFGGGTKLEIK
notes: Mouse monoclonal antibody purified from hybridoma supernatant; An IgG2a isotype antibody served as its control; also called R2C9-11 mAb
binding result [4]: no binding (tested: 10 (unit not printed on the sheet))
binding result (R3-IgD4 [5]): no binding (tested: 10 (unit not printed on the sheet))
binding result (R3-IgD7 [6]): no binding (tested: 10 (unit not printed on the sheet))

— patent publication US20210032353A1 (NATIONAL HEALTH RESEARCH INSTITUTES, published 2021)
